Reference: article PMC8085926

Substrate: CCC(=O)SCCNC(=O)CCNC(=O)[C@H](O)C(C)(C)COP(=O)(O)OP(=O)(O)OC[C@H]1O[C@@H](n2cnc3c(N)ncnc32)[C@H](O)[C@@H]1OP(=O)(O)O
Experiment: purified protein
Conditions: hydrolysis of propionyl-CoA to propionate; conditions only in supplement

B1: HiYciA (Haemophilus influenzae Rd KW20) (protein)
chain: MSANFTDKNGRQSKGVLLLRTLAMPSDTNANGDIFGGWIMSQMDMGGAILAKEIAHGRVVTVAVESMNFIKPISVGDVVCCYGQCLKVGRSSIKIKVEVWVKKVASEPIGERYCVTDAVFTFVAVDNNGRSRTIPRENNQELEKALALISEQPL
Km: 26.84 µM
kcat: 490 s⁻¹
kcat/Km: 1.83e+07 M⁻¹ s⁻¹

B2: PP_4975 (Pseudomonas putida KT2440) (protein)
chain: MNFHTRKWVKPEDLNPNGTLFGGSLLRWIDEEAAIYAIVQLGNQRVVTKYMSEINFVSASRQGDIIELGITATAFGRTSITLKCEVRNKITRKSILTVDKMVFVNLGEDGLPAAHGRTEIKYVQDQFPDSAVE
Km: 144.13 µM
kcat: 1300 s⁻¹
kcat/Km: 9.02e+06 M⁻¹ s⁻¹
